Experimental data as given in patent US20240199746A1 (published 2024).
Residue numbers refer to the chain shown, from its start. Numbers in names are those of the source.

T1: Ax1 protein, extracellular domain (human, UniProt P30530 26-451)
T1 construct: extracellular domain; also called Axl; Ark
T1 sequence (looked up): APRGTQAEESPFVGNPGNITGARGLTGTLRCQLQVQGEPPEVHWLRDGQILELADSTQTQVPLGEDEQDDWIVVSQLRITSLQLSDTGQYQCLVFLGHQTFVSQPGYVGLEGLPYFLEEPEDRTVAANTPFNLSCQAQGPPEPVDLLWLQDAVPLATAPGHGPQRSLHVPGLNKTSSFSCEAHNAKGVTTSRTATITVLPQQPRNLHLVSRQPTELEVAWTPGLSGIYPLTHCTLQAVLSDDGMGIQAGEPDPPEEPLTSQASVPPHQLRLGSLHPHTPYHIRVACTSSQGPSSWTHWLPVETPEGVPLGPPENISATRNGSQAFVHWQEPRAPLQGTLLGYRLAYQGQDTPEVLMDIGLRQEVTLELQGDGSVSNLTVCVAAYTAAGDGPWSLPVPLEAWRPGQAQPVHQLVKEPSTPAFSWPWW

B1: HC-W110H (antibody, V domains shown)
VH: EVQLVQSGAEVKKPGATVKISCKVSGYSFTGHTMNWIRQPPGKGLEWIGLIKPSNGGTSYNQKFKGRVTISADKSISTAYLQWSSLKASDTAMYYCAHGHYESYFAMDYHGQGTLVTVSS
VL: DIQMTQSPSSLSASVGDRVTITCKASQDVSSAVAWYQQKPGQAPRLLIYWASTRHTGVPSRFSGSGSGTEFTLTISSLQPDDFATYYCQEHFSTPLTFGQGTKVEIK
B2: HC-W110N (antibody, V domains shown)
VH: B1 VH with H110N
VL: B1 VL
B3: HC-W110R (antibody, V domains shown)
VH: B1 VH with H110R
VL: B1 VL
B4: HC-W110A (antibody, V domains shown)
VH: B1 VH with H110A
VL: B1 VL
B5: HC-W110T (antibody, V domains shown)
VH: B1 VH with H110T
VL: B1 VL
B6: HC-W110L (antibody, V domains shown)
VH: B1 VH with H110L
VL: B1 VL
B7: HC-E102L (antibody, V domains shown)
VH: B1 VH with E102L, H110W
VL: B1 VL
notes: CPE single point mutant
B8: HC-W110P (antibody, V domains shown)
VH: B1 VH with H110P
VL: B1 VL
B9: HC-P053N (antibody, V domains shown)
VH: B1 VH with P53N, H110W
VL: B1 VL
notes: CPE single point mutant
B10: HC-S059T (antibody, V domains shown)
VH: B1 VH with S59T, H110W
VL: B1 VL
notes: CPE single point mutant
B11: HC-E102Y (antibody, V domains shown)
VH: B1 VH with E102Y, H110W
VL: B1 VL
notes: CPE single point mutant
B12: HC-F105T (antibody, V domains shown)
VH: B1 VH with F105T, H110W
VL: B1 VL
notes: CPE single point mutant
B13: HC-B102D (antibody, V domains shown)
VH: B1 VH with E102D, H110W
VL: B1 VL
notes: CPE single point mutant; printed B102, read as E102 (other rows print HC-E102x)
B14: HC-M107E (antibody, V domains shown)
VH: B1 VH with M107E, H110W
VL: B1 VL
notes: CPE single point mutant
B15: HC-F105S (antibody, V domains shown)
VH: B1 VH with F105S, H110W
VL: B1 VL
notes: CPE single point mutant
B16: HC-B102F (antibody, V domains shown)
VH: B1 VH with E102F, H110W
VL: B1 VL
notes: as for B13
B17: HC-F105N (antibody, V domains shown)
VH: B1 VH with F105N, H110W
VL: B1 VL
notes: CPE single point mutant
B18: HC-H100P (antibody, V domains shown)
VH: B1 VH with H100P, H110W
VL: B1 VL
notes: CPE single point mutant
B19: HC-B102A (antibody, V domains shown)
VH: B1 VH with E102A, H110W
VL: B1 VL
notes: as for B13
B20: HC-N035I (antibody, V domains shown)
VH: B1 VH with N35I, H110W
VL: B1 VL
notes: CPE single point mutant
B21: HC-M107F (antibody, V domains shown)
VH: B1 VH with M107F, H110W
VL: B1 VL
notes: CPE single point mutant
B22: HC-A106L (antibody, V domains shown)
VH: B1 VH with A106L, H110W
VL: B1 VL
notes: CPE single point mutant
B23: HC-H100R (antibody, V domains shown)
VH: B1 VH with H100R, H110W
VL: B1 VL
notes: CPE single point mutant
B24: HC-B102H (antibody, V domains shown)
VH: B1 VH with E102H, H110W
VL: B1 VL
notes: as for B13
B25: HC-A106D (antibody, V domains shown)
VH: B1 VH with A106D, H110W
VL: B1 VL
notes: CPE single point mutant
B26: HC-S059I (antibody, V domains shown)
VH: B1 VH with S59I, H110W
VL: B1 VL
notes: CPE single point mutant
B27: HC-A106G (antibody, V domains shown)
VH: B1 VH with A106G, H110W
VL: B1 VL
notes: CPE single point mutant
B28: HC-F105V (antibody, V domains shown)
VH: B1 VH with F105V, H110W
VL: B1 VL
notes: CPE single point mutant
B29: HC-B102G (antibody, V domains shown)
VH: B1 VH with E102G, H110W
VL: B1 VL
notes: as for B13
B30: HC-E102M (antibody, V domains shown)
VH: B1 VH with E102M, H110W
VL: B1 VL
notes: CPE single point mutant
B31: HC-H100D (antibody, V domains shown)
VH: B1 VH with H100D, H110W
VL: B1 VL
notes: CPE single point mutant
B32: HC-B102I (antibody, V domains shown)
VH: B1 VH with E102I, H110W
VL: B1 VL
notes: as for B13
B33: HC-E102V (antibody, V domains shown)
VH: B1 VH with E102V, H110W
VL: B1 VL
notes: CPE single point mutant

These binders were tested against T1, Ax1 protein, extracellular domain (assay: ELISA, mutant diluted 1:3).
From the text: (§1) The DNA encoding the wild-type antibody was evolved to generate a mutant antibody library using Comprehensive Positional Evolution (CPE), which each position in the template antibody is randomized one at a time. Each mutant antibody in the library has only one single point mutation. The mutant antibodies in the library were generated by simultaneously screening for selective binding affinity to Ax1 at pH 6.0 over pH 7.4 by ELISA. Two mutant antibody dilutions were used: 1:3 and 1:9 dilutions.

Affinity ELISA CPE mutant ratio (1:3, pH 6.0/7.4)	Binder
7.99	B1
4.3	B2
5.99	B3
7.31	B4
7.47	B5
8.22	B6
3.27	B7
6.49	B8
1.4	B9
1.02	B10
2.61	B11
3.46	B12
2.67	B13
2.16	B14
3.9	B15
1.88	B16
2.36	B17

Affinity ELISA CPE mutant ratio (1:3, pH 6.0/7.4)	Binder
2.58	B18
1.53	B19
2.81	B20
20.6	B21
21.5	B22
1.88	B23
2.08	B24
3.39	B25
30.5	B26
1.52	B27
2.43	B28
1.8	B29
2.08	B30
2.42	B31
2.02	B32
1.93	B33

These binders were tested against T1, Ax1 protein, extracellular domain (assay: ELISA, mutant diluted 1:9).
From the text: as §1

Affinity ELISA CPE mutant ratio (1:9, pH 6.0/7.4)	Binder
0.932	B1
0.8	B2
1.06	B3
1.2	B4
1.37	B5
0.924	B6
2.7	B7
2.15	B8
1.89	B9
1.93	B10
1.99	B11
4.02	B12
2.85	B13
1.36	B14
4.54	B15
1.36	B16
2.64	B17

Affinity ELISA CPE mutant ratio (1:9, pH 6.0/7.4)	Binder
1.18	B18
1.69	B19
1.12	B20
1.09	B21
1.61	B22
2.51	B23
2.31	B24
2.51	B25
2.06	B26
2.2	B27
2.8	B28
2.68	B29
2.36	B30
3.09	B31
1.7	B32
2.51	B33
